Test results published in paper PMC13064919, “Novel extracellular vesicle release pathway facilitated by toxic superoxide dismutase 1 oligomers” (Neurobiology of disease, 2026).

Biological target: the molecule itself
Experiment: reducing SDS-PAGE western blot; NSC-34 lysate, SDS-PAGE loading dye with 0.1 M DTT, 12% gel

B1: Cavin-1 (natural protein, mouse (endogenous in NSC-34), UniProt O54724 1-392, looked up)
chain: MEDVTLHIVERPYSGFPDASSEGPEPTQGEARATEEPSGTGSDELIKSDQVNGVLVLSLLDKIIGAVDQIQLTQAQLEERQAEMEGAVQSIQGELSKLGKAHATTSNTVSKLLEKVRKVSVNVKTVRGSLERQAGQIKKLEVNEAELLRRRNFKVMIYQDEVKLPAKLSVSKSLKESEALPEKEGDELGEGERPEDDTAAIELSSDEAVEVEEVIEESRAERIKRSGLRRVDDFKKAFSKEKMEKTKVRTRENLEKTRLKTKENLEKTRHTLEKRMNKLGTRLVPVERREKLKTSRDKLRKSFTPDHVVYARSKTAVYKVPPFTFHVKKIREGEVEVLKATEMVEVGPEDDEVGAERGEATDLLRGSSPDVHTLLEITEESDAVLVDKSDSD
notes: Cavin-1, endogenous in NSC-34 cells, detected by western blot; source: endogenous, NSC-34 lysate (RIPA buffer)
stoichiometry N: 2
